Reference: patent publication US20240366624

Molecular target: wild type STIM1, recombinant, Q13586
Sequence (Q13586 23-213): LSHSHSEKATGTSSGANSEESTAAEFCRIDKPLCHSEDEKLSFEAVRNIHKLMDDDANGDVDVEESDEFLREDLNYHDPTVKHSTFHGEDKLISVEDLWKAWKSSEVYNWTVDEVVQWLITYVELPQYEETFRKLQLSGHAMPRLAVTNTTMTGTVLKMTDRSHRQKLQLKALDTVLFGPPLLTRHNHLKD

Protein | N-ethylmaleimide labeling on the Cys49 residue in STIM1 (mass spectrometry)
recombinant human ERO1α (endoplasmic reticulum oxidoreductase 1α), wild type (protein) EEQPPETAAQRCFCQVSGYLDDCTCDVETIDRFNNYRLFPRLQKLLESDYFRYYKVNLKRPCPFWNDISQCGRRDCAVKPCQSDEVPDGIKSASYKYSEEANNLIEECEQAERLGAVDESLSEETQKAVLQWTKHDDSSDNFCEADDIQSPEAEYVDLLLNPERYTGYKGPDAWKIWNVIYEENCFKPQTIKRPLNPLASGQGTSEENTFYSWLEGLCVEKRAFYRLISGLHASINVHLSARYLLQETWLEKKWGHNITEFQQRFDGILTEGEGPRRLKNLYFLYLIELRALSKVLPFFERPDFQLFTGNKIQDEENKMLLLEILHEIKSFPLHFDENSFFAGDKKEAHKLKEDFRLHFRNISRIMDCVGCFKCRLWGKLQTQGLGTALKILFSEKLIANMPESGPSYEFHLTRQEIVSLFNAFGRISTSVKELENFRNLLQNIH | wtERO1α, but not mERO1α, decreased N-ethylmaleimide labeling on the Cys49 residue in STIM1 in a concentration-dependent manner
activity-null mutant ERO1α-Cys94Ser (protein) EEQPPETAAQRCFCQVSGYLDDCTCDVETIDRFNNYRLFPRLQKLLESDYFRYYKVNLKRPCPFWNDISQSGRRDCAVKPCQSDEVPDGIKSASYKYSEEANNLIEECEQAERLGAVDESLSEETQKAVLQWTKHDDSSDNFCEADDIQSPEAEYVDLLLNPERYTGYKGPDAWKIWNVIYEENCFKPQTIKRPLNPLASGQGTSEENTFYSWLEGLCVEKRAFYRLISGLHASINVHLSARYLLQETWLEKKWGHNITEFQQRFDGILTEGEGPRRLKNLYFLYLIELRALSKVLPFFERPDFQLFTGNKIQDEENKMLLLEILHEIKSFPLHFDENSFFAGDKKEAHKLKEDFRLHFRNISRIMDCVGCFKCRLWGKLQTQGLGTALKILFSEKLIANMPESGPSYEFHLTRQEIVSLFNAFGRISTSVKELENFRNLLQNIH | wtERO1α, but not mERO1α, decreased N-ethylmaleimide labeling on the Cys49 residue in STIM1
